Columns and labels:
[1] = target: human FGFR2c on cells (human) (UniProt P21802); assay: flow cytometry, human FGFR2c OE cells
[2] = target: human FGFR2b protein (recombinant, coated on ELISA plates) (human) (UniProt P21802); assay: ELISA, plate-coated human FGFR2b

human FGFR2c on cells (human), sequence (P21802 22-821): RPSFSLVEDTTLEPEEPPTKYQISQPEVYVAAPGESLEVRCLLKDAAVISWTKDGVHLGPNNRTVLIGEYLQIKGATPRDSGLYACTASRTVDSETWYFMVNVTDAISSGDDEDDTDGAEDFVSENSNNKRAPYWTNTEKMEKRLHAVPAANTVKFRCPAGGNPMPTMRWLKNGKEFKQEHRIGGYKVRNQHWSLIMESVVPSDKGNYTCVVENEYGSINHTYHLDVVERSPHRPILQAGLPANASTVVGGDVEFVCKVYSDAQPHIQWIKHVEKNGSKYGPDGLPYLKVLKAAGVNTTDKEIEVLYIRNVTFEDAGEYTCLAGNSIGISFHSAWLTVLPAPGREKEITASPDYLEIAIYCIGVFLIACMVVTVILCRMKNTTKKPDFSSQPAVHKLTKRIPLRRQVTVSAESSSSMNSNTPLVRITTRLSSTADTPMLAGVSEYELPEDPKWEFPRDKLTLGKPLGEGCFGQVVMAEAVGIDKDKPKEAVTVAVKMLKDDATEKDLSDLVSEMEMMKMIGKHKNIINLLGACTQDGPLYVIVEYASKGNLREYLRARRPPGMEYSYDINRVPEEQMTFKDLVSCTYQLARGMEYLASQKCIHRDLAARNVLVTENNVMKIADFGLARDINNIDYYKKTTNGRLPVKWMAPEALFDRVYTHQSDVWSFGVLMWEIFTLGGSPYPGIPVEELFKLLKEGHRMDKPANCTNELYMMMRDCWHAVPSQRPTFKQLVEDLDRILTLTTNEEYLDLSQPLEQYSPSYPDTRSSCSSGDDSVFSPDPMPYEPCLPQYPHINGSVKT

Isotype IgG control CB-6 (antibody) was tested, and the Emax (MFI) [1] was 27 MFI and the Emax (OD450) [2] was 0.08 OD450.
